Patent US20250042996A1 (ALLAKOS, published 2025)
Numbering of substitutions follows the chain as printed. Where two headings read alike, the source gives them in different places.

How the values were obtained:
[1] = molecular target: human Siglec-9 (expressed on transfected Expi293 cells; also on primary human monocytes) (human) (UniProt Q9Y336)
[2] = molecular target: human SIGLEC-9-ECD-Fc recombinant fusion protein (human) (UniProt Q9Y336); assay: Siglec-9/Ligand Blocking Assay: antibody titrated against Siglec-9-ECD-Fc, blocked binding to ligands on T47D cells, median MFI by flow cytometry; unit inferred, x axis 'Ab (nM)'
[3] = molecular target: human SIGLEC-9-ECD-Fc recombinant fusion protein (human) (UniProt Q9Y336); assay: Ligand Displacement Assay: Siglec-9-ECD-Fc pre-bound to ligands on T47D cells, antibody titrated, remaining Siglec-9-ECD-Fc as median MFI by flow cytometry; unit inferred, x axis 'Ab (nM)'
[4] = molecular target: human SIGLEC-9-ECD-Fc recombinant fusion protein (human) (UniProt Q9Y336); assay: column 'Blocking EC50 (nM)': ligand blocking assay, antibody pre-mixed with Siglec-9-ECD-Fc, blocked binding to Siglec-9 ligands on T47D cells, flow cytometry
[5] = molecular target: human SIGLEC-9-ECD-Fc recombinant fusion protein (human) (UniProt Q9Y336); assay: column 'Displacement EC50 (nM)': ligand displacement assay, Siglec-9-ECD-Fc pre-bound to ligands on T47D cells, antibody titrated, remaining Siglec-9-ECD-Fc by flow cytometry
[6] = molecular target: human SIGLEC-9-ECD-Fc recombinant fusion protein (human) (UniProt Q9Y336); assay: Ligand Displacement Assay, negative control: fitted value printed for a curve that only dips at the last points; unit inferred, x axis 'Ab (nM)'
[7] = molecular target: human SIGLEC-9-ECD-Fc recombinant fusion protein (human) (UniProt Q9Y336); assay: Siglec-9/Ligand Blocking Assay, negative control: fitted value printed for an almost flat curve; unit inferred, x axis 'Ab (nM)'
[8] = molecular target: T1, human SIGLEC-9-ECD-Fc recombinant fusion protein (human, UniProt Q9Y336 18-343); assay: Siglec-9/Ligand Blocking Assay: antibody titrated against Siglec-9-ECD-Fc, blocked binding to ligands on T47D cells, median MFI by flow cytometry; unit inferred, x axis 'Ab (nM)'
T1 construct: The range starts at residue 1, so it includes the signal peptide; No cleavage site is stated; Secreted from CHOK1SV cells and purified on Protein A; also called Siglec-9-ECD-huFc; S9-ECD-Fc
Description: (§1) Recombinant Siglec-9-Fc was added to T47D cells in the presence of anti-Siglec-9 antibodies at increasing concentrations and binding of the complex was detected on the cell surface. […] The ability of an antibody to displace ligand binding was also determined (FIGS. 3 and 5).
(§2) Human breast cancer cell line T47D, which expresses high level of ligands for Siglec-9, was used to determine the blocking activity of anti-Siglec-9 antibodies in a cell-based assay. Two-fold serial dilutions of anti-Siglec-9 antibodies (40 nM to 40 pM) were combined with 10 nM Siglec-9-ECD-Fc in FACS buffer (PBS/2% BSA) and incubated on ice for 30 minutes. 2.5×10e4 T47D cells per well were added to round bottom 96-well tissue culture plates in FACS buffer, plates were centrifuged at 400g for 2 min, supernatant was removed and cells were re-suspended in 100 ul of the antibody-Siglec-9 complexes. After a 1 hour incubation on ice, cells were washed twice and incubated for 30 minutes with goat anti-human F(ab′)₂ fragment conjugated to AF647 (Jackson IR labs) at lug/ml in FACS buffer. After two more washes, cells were fixed in PBS/2% PFA and acquired on a Novocyte flow cytometer (ACEA biosciences). IC₅₀ values for blocking were determined based on plotting mean fluorescence in the APC channel and analysis using Prism Graphpad software.

[9] = molecular target: T1, human SIGLEC-9-ECD-Fc recombinant …; assay: column 'Blocking EC50 (nM)': ligand blocking assay, antibody pre-mixed with Siglec-9-ECD-Fc, blocked binding to Siglec-9 ligands on T47D cells, flow cytometry
Description: as §1, §2

[10] = molecular target: T1, human SIGLEC-9-ECD-Fc recombinant …; assay: bio-layer interferometry (ForteBio), antibody captured on anti-mouse sensors, Siglec-9-ECD as analyte, 25 C, 1:1 global fit
Description: Antibody binding analysis was carried out by bio-layer interferometry (ForteBio). […] Antibodies were captured on anti-mouse kinetic sensors at 0.5 ug/mL; Siglec-9-ECD was used as analyte and diluted in assay buffer from 50 nM to 1.56 nM with 2x dilutions. Two-minute associations were conducted, followed by 10-minute dissociations. Results were determined relative to a control empty reference AHC sensor, and analyzed using ForteBio analysis software with 1:1 global fit parameters.

[11] = molecular target: human Siglec-9 (expressed on transfected Expi293 cells; also on primary human monocytes) (human, UniProt Q9Y336 18-463); assay: cell-based or functional assay
[12] = molecular target: T1, human SIGLEC-9-ECD-Fc recombinant …; assay: column 'Displacement EC50 (nM)': ligand displacement assay, Siglec-9-ECD-Fc pre-bound to ligands on T47D cells, antibody titrated, remaining Siglec-9-ECD-Fc by flow cytometry
Description: as §1
(§3) T47D cells were treated with 2ug/mL S9-ECD-Fc for 1 hour on ice. After the 1 hr preincubation of S9, a titration curve of anti Siglec-9 msIgG1s were added for 1 hr incubation at +37° C. Cells were then washed to remove unbound S9. Bound S9 were detected through the human Fc using Alexa488 conjugated secondary. Levels of remaining S9 were assessed by flow cytometry”

[13] = molecular target: T1, human SIGLEC-9-ECD-Fc recombinant …; assay: Ligand Displacement Assay: Siglec-9-ECD-Fc pre-bound to ligands on T47D cells, antibody titrated, remaining Siglec-9-ECD-Fc as median MFI by flow cytometry; unit inferred, x axis 'Ab (nM)'
Description: as §1, §3

[14] = molecular target: T1, human SIGLEC-9-ECD-Fc recombinant …; assay: BLI (ForteBio Octet Red), SIGLEC-9-ECD-Fc on anti-human Fc sensors, Fab in solution, monovalent
Description: (§4) Anti-human Fc sensors were coated with SIGLEC-9-ECD-Fc at a concentration of 20 μg/ml in 1XHBS+1% BSA buffer (GE Lifesciences). After a brief wash with 1XHBS+1% BSA buffer, m9A12, ch9A12 or the humanized Fabs were applied to the antigen-coated sensors. The monovalent binding association and dissociation rates were calculated by the ForteBio Octet Red analysis software.

[15] = molecular target: T1, human SIGLEC-9-ECD-Fc recombinant …; assay: as above; remark: listed apart in the source
Description: The V-regions from the humanized Fab were re-formatted for expression as a human IgG4.
as §4

T1 sequence (Q9Y336 18-343): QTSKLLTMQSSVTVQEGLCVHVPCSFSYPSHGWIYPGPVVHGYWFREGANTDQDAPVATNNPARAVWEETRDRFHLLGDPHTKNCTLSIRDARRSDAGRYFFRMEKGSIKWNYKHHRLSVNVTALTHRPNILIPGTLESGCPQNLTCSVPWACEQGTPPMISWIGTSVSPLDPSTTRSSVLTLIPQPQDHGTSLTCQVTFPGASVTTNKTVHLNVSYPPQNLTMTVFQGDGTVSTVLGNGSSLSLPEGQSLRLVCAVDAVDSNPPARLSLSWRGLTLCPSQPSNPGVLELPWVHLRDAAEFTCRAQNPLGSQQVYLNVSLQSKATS
human SIGLEC-9-ECD-Fc recombinant fusion protein (human), sequence (Q9Y336 18-343): as above
human Siglec-9 (expressed on transfected Expi293 cells; also on primary human monocytes) (human), sequence (Q9Y336 18-463 limits assumed): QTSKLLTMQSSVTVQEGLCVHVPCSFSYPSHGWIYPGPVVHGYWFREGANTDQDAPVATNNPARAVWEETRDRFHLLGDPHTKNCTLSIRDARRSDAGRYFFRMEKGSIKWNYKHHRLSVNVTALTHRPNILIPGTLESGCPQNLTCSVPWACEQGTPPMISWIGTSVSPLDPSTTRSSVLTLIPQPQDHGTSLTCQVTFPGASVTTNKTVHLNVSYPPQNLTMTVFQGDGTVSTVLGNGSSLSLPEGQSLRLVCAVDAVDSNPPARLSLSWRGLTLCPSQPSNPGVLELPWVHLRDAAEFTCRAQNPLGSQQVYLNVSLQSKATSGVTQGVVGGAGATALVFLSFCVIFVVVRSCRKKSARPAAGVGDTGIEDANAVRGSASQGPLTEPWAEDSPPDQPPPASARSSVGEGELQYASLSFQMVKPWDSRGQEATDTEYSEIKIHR
human Siglec-9 (expressed on transfected Expi293 cells; also on primary human monocytes), sequence (Q9Y336 18-463 limits assumed): as above

anti-Siglec-9 monoclonal antibody MAB1139 (R&D Systems)
Internalization EC50: loss of surface Siglec-9 on CD14+ monocytes in PBMC after 24 h [1]: 0.165 nM
IC50 [2]: 4.39 nM
IC50 [3]: 2 nM
EC50 [4]: 4.4 nM
EC50 [5]: 2 nM

msIgG1 (p1) (antibody)
IC50 [6]: 140 nM

Isotype (p3) (antibody)
IC50 [7]: 71.3 nM

B1: mouse anti-Siglec-9 monoclonal antibody 9A12 (antibody, V domains shown)
VH: QVQLQQSGAELVRPGASVTLSCKASDYTFTDYEMHWVKQTPVHGLEWIGAIDPEAGGTDYNQKFKGKAILTADKSSSTAYMELRSLTSEDSAVYYCTRVWLHWGQGTTLTVSS
VL: NIVMTQSPSSLAVSAGEKVTMNCKSSQSVLYSSNQKNYLAWYQQKPGQSPKMLIYWASTRESGVPDRFTGSGSGTDFTLTISSVQSEDLAVYYCHQYLSSNTFGGGTKLEIK
notes: Mouse monoclonal antibody; also called m9A12
IC50 [8]: 2.62 nM
EC50 [9]: 2.62 nM
Kd [10]: < 0.001 nM
Internalization EC50: loss of surface Siglec-9 on CD14+ monocytes in PBMC after 24 h [11]: 0.125 nM
EC50 [12]: 1.52 nM
IC50 [13]: 1.52 nM

B2: Tf73 Fab (Fab, V domains shown)
VH: QVQLVQSGAEVKKPGASVKVSCKASDYTFTGYEMHWVRQAPGQGLEWMGAIDPEAGGTDYAQKFQGRVTMTADTSISTAYMELSRLRSDDTAVYYCTRVWLHWGQGTLVTVSS
VL: B1 VL with N1D, S9D, A15L, K18R, S49P, T69S, V84L, S86A, L89V, G105Q
notes: also called AK643-3 / AK628-1
Kd [14]: 0.575 nM
koff [14]: 0.000184 s⁻¹
kon [14]: 319000 M⁻¹ s⁻¹
Kd [15]: 0.575 nM
koff [15]: 0.000184 s⁻¹
kon [15]: 319000 M⁻¹ s⁻¹

B3: Tf63 Fab (Fab, V domains shown)
VH: B2 VH with G31D
VL: B1 VL with N1D, S9D, A15L, K18R, S49P, T69S, V84L, S86A, L89V, G105Q
notes: Humanized 9A12 Fab; also called AK639-12 / AK628-1
Kd [15]: 0.66 nM
koff [15]: 0.00016 s⁻¹
kon [15]: 242000 M⁻¹ s⁻¹

B4: Tf83 Fab (Fab)
chain 1: B2 VH with G31D, D52N
chain 2: B1 VL with N1D, S9D, A15L, K18R, S49P, T69S, V84L, S86A, L89V, G105Q
Kd [14]: 9.99 nM
koff [14]: 0.00297 s⁻¹
kon [14]: 298000 M⁻¹ s⁻¹

B5: Tf84 Fab (Fab)
chain 1: B2 VH with G31D, D52N, A55S
chain 2: B1 VL with N1D, S9D, A15L, K18R, S49P, T69S, V84L, S86A, L89V, G105Q
Kd [14]: 2.24 nM
koff [14]: 0.00295 s⁻¹
kon [14]: 1.32e+06 M⁻¹ s⁻¹

B6: Tf71 Fab (Fab)
chain 1: B2 VH with D26G, G31D
chain 2: B1 VL with N1D, S9D, A15L, K18R, S49P, T69S, V84L, S86A, L89V, G105Q
Kd [14]: 0.533 nM
koff [14]: 0.000232 s⁻¹
kon [14]: 435000 M⁻¹ s⁻¹
